Reference: the supplement of paper PMC9170038

Tested on: MS2 coat protein
Assay: apparent KD of MS2 coat protein; designed switch direction (-1 OFF switch, 1 ON switch): 1; higher = weaker reporter binding
Method in brief: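 Stalled E. coli RNA polymerase transcribed designed RNA switches on Illumina chips, which were then titrated with SNAP-549-labelled MS2 coat protein, doubling from 0.7 or 1.5 nM to 3 µM. Steps lasted from 0.8–1.5 h at the lowest concentration to 10–20 min at the highest. The apparent KD is each design's median over clusters of curve-fitted normalised fluorescence.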

[1] = input ligand: microRNA oligo, concentration not stated
[2] = Eterna round: R95, input ligand: FMN 200 uM
[3] = Eterna round: R95, input ligand: microRNA oligo, concentration not stated
[4] = Eterna round: R95, input ligand: none

Row | Sequence | apparent KD of MS2 coat protein (input ligand: FMN 200 uM) | apparent KD of MS2 coat protein [1] | apparent KD of MS2 coat protein (input ligand: none) | apparent KD of MS2 coat protein [2] | apparent KD of MS2 coat protein [3] | apparent KD of MS2 coat protein [4]
1 | GCGAGCGUACUUGCUACAUGAGGAUCACCCAUGUUUAUUGGACAGGAUAUGGUACCGUUUCGGUACCAGAAGGGUCCACAUGUG [JL SSNG3 3.86] (Eterna round: R96, puzzle: Same State NG 3) | 106 nM | 182 nM | 289 nM |  |  | 
2 | GCGAGGAUAUGCAGAGGAUCACCCUGUAGAAGGCGCAAAAGCGAGGAUAUGCAGAGGAUCACCCUGUAGAAGGCGCACUACUCU [pwkr ssNG3 DX 2xF5 +2xFMN.4] (Eterna round: R96, puzzle: Same State NG 3) | 153 nM | 161 nM | 221 nM |  |  | 
3 | GCGAUAUGAUGCUACAUGAGGAUCACCCAUGUAGCGACAGCUAAGGAUAUUGGAAAGGGAGGAGACGAGAAGGUAGGGUCACGC [AK SSNG3-V2-24.1] (Eterna round: R96, puzzle: Same State NG 3) | 11.5 nM | 11.6 nM | 17.2 nM |  |  | 
4 | GCGCAGCUGCGCAAUAUUACAUGAGGAUCACCCAUGUUGUCACAGGAUAUGCUGGACAGCGUCGAGCAGAAGGGUGACCAAACA [Zasovexe] (Eterna round: R96, puzzle: Same State NG 3) | 191 nM | 97.2 nM | 300 nM |  |  | 
5 | GCGGAACAUGAGGAUCACCCAUGUAAAGGGUGUAAAGGAUAUUAUUGGGAGAAGGUAGGGUAAGAAGGUUGCUUGG [JR_SS1_Sub088] (Eterna round: R96, puzzle: Same State 1) |  | 432 nM |  |  |  | 
6 | GCGGAACAUGAGGAUCACCCAUGUAAAGGGUGUAAAGGAUAUUAUUGGGAGAAGGUAGGGUAAGAAGGUUGCUUGG [JR_SS1_Sub088] (puzzle: Same State 1) |  |  |  | 609 nM | 666 nM | 1240 nM
7 | GCGGUACCUAACAUGAGGAUCACCCAUGUUCCGGAAACGGCACAGGAUAUCUGUCCGAAAAGGUCAGAGAAGGGUGAAAUCCGC [Fiskers NG3ss - 93] (Eterna round: R96, puzzle: Same State NG 3) | 361 nM | 51.6 nM | 93.3 nM |  |  | 
8 | GCUAGAAUAAAUGCUAACAUGAGGAUCACCCAUGUAUGUUGGCAGGAUAUCGUAUGCAAAGCAUACGAGAAGGGCCAUACUAGC [Mat - Same State NG 3 - JL Mod - D27] (Eterna round: R96, puzzle: Same State NG 3) | 17.3 nM | 20.4 nM | 29.5 nM |  |  | 
9 | GCUAGAAUUAAUGCCUACAUGAGGAUCACCCAUGUAUGUAGGCAGGAUAUCGUUUGCAAAGCAAACGAGAAGGGCCUUACUAGC [Mat - Same State NG 3 - JL Mod - D28] (Eterna round: R96, puzzle: Same State NG 3) | 21.9 nM | 46.1 nM | 63.7 nM |  |  | 
10 | GCUAGAAUUAAUGCCUACAUGAGGAUCACCCAUGUAUGUAGGCAGGAUAUCGUUUGCUUUGCAAACGAGAAGGGCCUUACUAGC [JL SSNG3 1.10] (Eterna round: R96, puzzle: Same State NG 3) | 18.9 nM | 50.8 nM | 77.3 nM |  |  | 
11 | GCUAGGAUAUGACGAGGAUCACCCGUUAGAAGGAGCUUCGGCUAGGAUAUGACGAGGAUCACCCGUUAGAAGGAGCUGUACUCU [pwkr ssNG3 DX 2xF5 +2xFMN.9] (Eterna round: R96, puzzle: Same State NG 3) | 144 nM | 76.7 nM | 92.3 nM |  |  | 
12 | GCUAGUAUUAUUGCUAACAUGAGGAUCACCCAUGUAUGUUGGCAGGAUAUCGUUUGCAAAGCAAACGAGAAGGGCUAAACUAGC [Mat - Same State NG 3 - JL Mod - D13] (Eterna round: R96, puzzle: Same State NG 3) | 27.7 nM | 75.6 nM | 98.8 nM |  |  | 
13 | GCUCGACGUAUGGCCUACAUGAGGAUCACCCAUGUGAUUGGGCAGGAUAUCUAGAUGCAGGAUGUAGAGAAGGGCCCGUCGAGC [SameState NG3 #47] (Eterna round: R96, puzzle: Same State NG 3) | 393 nM | 92 nM | 230 nM |  |  | 
14 | GCUCGAUGAACGUCCUACAUGAGGAUCACCCAUGUUCGUGGGCAGGAUAUUUACAUGCAGAGUGUAGAGAAGGGCCCAUCGAGC [SameState NG3 #64] (Eterna round: R96, puzzle: Same State NG 3) | 67.8 nM | 74.6 nM | 165 nM |  |  | 
15 | GCUCGAUGAGCUGUUUACAUGAGGAUCACCCAUGUAGAUGCGGAGGAUAUUUACGUGCUUUAUGUAGAGAAGGCCGUAUCGAGC [SameState NG3 #80] (Eterna round: R96, puzzle: Same State NG 3) | 14 nM | 24.5 nM | 24.1 nM |  |  | 
16 | GCUCGAUGAUAGUCCUACAUGAGGAUCACCCAUGUAAGUGGGCAGGAUAUCUACAUGCAGAAUGUAGAGAAGGGCCCGUCGAGC [SameState NG3 #56] (Eterna round: R96, puzzle: Same State NG 3) | 16.1 nM | 16.4 nM | 23.2 nM |  |  | 
17 | GCUCGGAUGAUGGCCCACAUGAGGAUCACCCAUGUGAGUGGGCAGGAUAUCUAGAUUAAGGAUGUAGAGAAGGGCCUACCGAGC [SameState NG3 #34] (Eterna round: R96, puzzle: Same State NG 3) | 2070 nM | 100 nM | 759 nM |  |  | 
18 | GCUCGUGGUAUUGUCUACAUGAGGAUCACCCAUGUAGGUGCGGAGGAUAUUUACGUGUCUCAUGUAGAGAAGGCCGUCACGAGC [SameState NG3 #97] (Eterna round: R96, puzzle: Same State NG 3) | 52.2 nM | 190 nM | 297 nM |  |  | 
19 | GCUGCGAUUAACGCCUACAUGAGGAUCACCCAUGUAUGUAGGCAGGAUAUCGUUUGCUUUGCAAACGAGAAGGGCUGUAGUAGC [salish99_SSNG3_R04_004] (Eterna round: R96, puzzle: Same State NG 3) | 39.4 nM | 68.4 nM | 86.9 nM |  |  | 
20 | GCUUGCGGCGCAGGAUAUGGGUGCCUGUACAUGAGGAUCACCCAUGUUAAGGGACGGAAAACGAACCAGAAGGGCGUCGCGAGC [Inraeded] (Eterna round: R96, puzzle: Same State NG 2) | 84.9 nM | 218 nM | 1280 nM |  |  | 
21 | GGAAAGAGGUUAGGAUAUGCAUGUUUGGGACAUGAGGAUCACCCAUGUAAUAGAAGAAAUCUACAGUAGAAGGGACAAGGAAGG [AK SSNG2-V2-6.1] (Eterna round: R96, puzzle: Same State NG 2) | 152 nM | 72.9 nM | 170 nM |  |  | 
22 | GGAACACAUGAGGAUCACCCAUGUCAAGGAGGUCGAGGAUAUAGGAAAAAAAAAAAAAAAUUAGAAGGUGAGGAGG [V1] (Eterna round: R96, puzzle: Same State 1) | 270 nM | 166 nM | 275 nM |  |  | 
23 | GGAAUAUUUACAGGAUAUGAUUUGUAAAUUCGAUCAGAAGGGUAGAUGUCUUACACGAUUUGUUACAUGAGGAUCACCCAUGUU [SameState NG1 #10] (Eterna round: R96, puzzle: Same State NG 1) | 31 nM | 81.9 nM | 86.3 nM |  |  | 
24 | GGAGAACAUGAGGAUCACCCAUGUAGGCGUUAGCUAGGAUAUGCGGGAAGGAAGAGAGAAGCAGAAGGAGUAGGUA [JR_SS1_Sub031] (puzzle: Same State 1) |  |  |  | 39.6 nM | 64.4 nM | 80 nM
25 | GGAGAGAAGUGAGGAUAUGCAUGGAAGACACAUGAGGAUCACCCAUGUGGGAGGGAGACCGGGAGGUAGAAGGCACUGGGAAGA [AK SSNG2-V2-25.1] (Eterna round: R96, puzzle: Same State NG 2) | 425 nM | 42.3 nM | 74.2 nM |  |  | 
26 | GGAGCCAAGGCAGGAUAUUCAAAACAUGAGGAUCACCCAUGUGGGUAAAAGGCCAGAAGGCCUUGGGAGAAGGGCCAUGGCUCG [Xeonanis - 13 mod12] (Eterna round: R96, puzzle: Same State NG 2) | 11.5 nM | 9.02 nM | 15.8 nM |  |  | 
27 | GGAGCCGGCACUGAGGAUAUUCAUAUUAAAACAUGAGGAUCACCCAUGUAGGCCAGAAGGCCUUGGGAGAAGGCAGGUCGACUCG [Diqureveri] (Eterna round: R96, puzzle: Same State 2) | 24.5 nM | 159 nM | 209 nM |  |  | 
